Measured values taken from the supplement of paper PMC9170038.

System: MS2 coat protein
Test: apparent KD of MS2 coat protein; higher = weaker reporter binding
Settings: Eterna round: R107
In short: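 Illumina sequencing clusters were used for on-chip transcription of designed RNA switches. Titration with SNAP-549-labelled MS2 coat protein followed, in twofold steps from 0.7 or 1.5 nM to 3 µM in 100 mM Tris-HCl pH 7.5, 80 mM KCl, 4 mM MgCl2, without or with constant ligand. Apparent KD is each design's median of fits to normalised cluster binding curves.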

[1] = input ligand: theophylline 20 uM
[2] = input ligand: theophylline 2 mM
[3] = input ligand: tryptophan 2.4 mM

Sequence	apparent KD of MS2 coat protein (input ligand: arginine 13.2 mM)	apparent KD of MS2 coat protein (input ligand: none)	apparent KD of MS2 coat protein [1]	apparent KD of MS2 coat protein [2]	apparent KD of MS2 coat protein [3]
ACAUGAGGAUCACCCAUGUGAAGGCACGAUACCAGCUGAUCCCGUGGCCCUUGGCAGCGUCCGGUUUGGUCCGGCGGAUGGGACG [vvamullin]	13.1 nM	18.8 nM	33.6 nM	21.9 nM	23 nM
AAUAAUAAGGCGGCCGCCACUAAACAUGAGGAUCACCCAUGUCUCGAGCGCUUGCAUUUGGGAAGUAGGACCGGGCCAAUAAUAA [Exclusion - Tryptophan B (Freestyle 4)]	14.5 nM	21.4 nM	28.8 nM	22.6 nM	19.4 nM
GGCGUCGGGCGAAGGAGCGUGAAGACAUGAGGAUCACCCAUGUAGAGGCCCGAACAGGGUUCGCAGGUAGGUCGCGCGCGGUGCC [#1 Same State - Arginine B Attempt #6 (HarryS)]	11.5 nM	13.6 nM	24.7 nM	21.4 nM	15.6 nM
UGGCGAGAAGGAAGGAGCGUCAGCUGAGUUACAUGAGGAUCACCCAUGUUUUACAUUGUGUGACAGGUAGGUCGCCUUCUGCCCU [SS-ArgB20]	15.7 nM	14 nM	18.8 nM	16.9 nM	13.5 nM
AGAUUCGACACGGCCGCCACUUGUGGUGGAUUAUCCUAUGUCGAACAUGAGGAUCACCCAUGUACAAGGACCGGGUGUUGAGUCU [XTryp B #21]	156 nM	–	365 nM	447 nM	–
ACUACAUGAGGAUCACCCAUGUGUACUGAAGGAGCGGCGGAAACGCCAGGUAGGUCGCAGUACACCUCAACCAGCGGUCCUAAGU [EAA NP+V+V2 #1]	30 nM	38.2 nM	85.9 nM	115 nM	51.1 nM
GGAAUAAUGGCGGCCGCCACUAACUCAUAUACAUCAUGUACAUGAGGAUCACCCAUGUAGGUGUAUAGGACCGGGCCAUAAUUCC [39MS split4]	20.1 nM	–	27.3 nM	25.1 nM	–
UCCUGCAGAGCGGCCGCCACUGUAUUGCGUGAGGAUGACCCAACAUGAGGAUCACCCAUGUUGUUUAGGACCGGGCUUGCCACGA [opmullin%]	13.7 nM	–	21.2 nM	15 nM	–
UUGAUCAUAUAUGAAAACAUAUAUGCAGAAGGAGCGUGAUAAAACACAGGUAGGUCGCUGAAGGGAACAUGAGGAUCACCCAUGU [AstrosSSArgA#3]	30.2 nM	27.2 nM	39.4 nM	34.1 nM	26.8 nM
GUCUGUGACUGAAGGAGCGACAUGAGGAUCACCCAUGUCUCCCGUUAUGGGAGUUCCUUAGGUCAGGUAGGUCGCAGUCACAGAC [#1 Exclusion - Arginine B Attempt #28 (Inspired by Omei)]	71.4 nM	112 nM	137 nM	152 nM	103 nM
AACAUGAGGAUCACCCAUGUCCCAUGUGAACGAGGACCGGUACGGCCGCCACUCGACCGAGGCGGCACAUGAGGAUCACCCGCAU [whbob_SS_trypto A_2s14]	161 nM	–	481 nM	682 nM	–
UGACAUUGCUCAGAUACCAGACAUGAGGAUCACCCAUGUACCAAGAAAGUACAAUAAAAUGUCCCUUGGCAGCUGAGCAAUGUCU [TheoBX 8 #MS2Left #Theo2]	61.2 nM	–	137 nM	–	66.9 nM
GAAAAUCCCGUACAUGAGGAUCACCCAUGUCGAGGACCGGUACGGCCGCCACUCGCACGCAUUGCAUUGGAGGGUCAGGUACGAG [Erenerrati]	26.9 nM	28.5 nM	34.7 nM	29.2 nM	75.5 nM
GUCCUAGCGAGCGCUCGCUAGGACGCGGAUACCAGCGAGGUCCAUCGCCCUUGGCAGCCGAACAUGAGGAUCACCCAUGUCGGUA [#1 Same State - Theophylline A Attempt #16 (HarryS)]	8.3 nM	11.6 nM	13.2 nM	13.4 nM	9.97 nM
ACAUGAGCAUCAGCCUUGUAGGAACUAGAUACCAGCCCAACAUGAGGCCCUUGGCAGCUGACAACAUGAGGAUCACCCAUGUCAC [Exclusion - Theophylline A #1]	20.1 nM	–	36.3 nM	–	38.4 nM
UGUAUGUGAUCUGAUACCAGAGUGACGCGAAAGCGAUAACCUGAGGAUCACCCUGGUAAACUCCCUUGGCAGCAGAUCGCAUACU	53.7 nM	75.3 nM	60.2 nM	24 nM	79.7 nM
AUGGCGUUGGUGAGGCGGUUUAAUGGCGAUACCAGCGUGGAAACACGCCCUUGGCAGCGCCAAAACAUGAGGAUCACCCAUGUUA [Budejovice]	13.2 nM	13.4 nM	28 nM	132 nM	16.4 nM
AUUCCAUAGGUGCAGUUGUUAAAUGGCGAUACCAGCGUGGAAACACGCCCUUGGCAGCGCCAAAACAUGAGGAUCACCCAUGUUA [Kladno]	48.3 nM	–	111 nM	–	94.8 nM
CGAUCUUUCGAAAGAAGGAUCUUGUCUGAUACCAGAGACGAAAGUCUCCCUUGGCAGCAGUGCCAACAUGAGGAUCACCCAUGUU [Theophylline A 11]	16 nM	–	17.6 nM	–	15.5 nM
GAUGAACUAUUUGAUACCAGACUACAUGAGGAUCACCCAUGUGAGUUUCCUCCUCUGCCAGUCCCUUGGCAGCAAAUAGUUUAUC [XTheo B #7]	57.6 nM	–	96.9 nM	–	42.3 nM

Sequence	apparent KD of MS2 coat protein (input ligand: arginine 13.2 mM)	apparent KD of MS2 coat protein (input ligand: none)	apparent KD of MS2 coat protein [1]	apparent KD of MS2 coat protein [2]	apparent KD of MS2 coat protein [3]
AAAACAAACUCGGCCGCCACUCCCUCCCACCCAAGGACAUGAGGAUCACCCAUGUGGCAAAGCCCGAGGACCGGGAGAAACAAAA [Same State - Trytophan B]	18.1 nM	22.2 nM	28.3 nM	26.4 nM	20.3 nM
UUAGAUAUGACGGAUACCAGCGUGUUGUAGAACAUGAGGAUCACCCAUGUAGUGAUCGUGCGCCCUUGGCAGCUGGUAUGUUUGG [7.V]	133 nM	–	491 nM	–	501 nM
AUCGCACCUGGUGAUACCAGCAAUUGCUCGUGACAUGAGGAUCACCCAUGUGGCCAGUGAUGCCCUUGGCAGCAUGGUCGGUGCA [Same State - Theophylline B (Freestyle 25)]	98.2 nM	317 nM	335 nM	64.5 nM	288 nM
UUCAGCUAGUCGGCCGCCACUACAUGAGGAUCACCCAUGUAUCCUAAACACUGCUUCGGCAGUGGUAGGACCGGGACUAGCUGAG	18.1 nM	13.9 nM	21.6 nM	18.3 nM	136 nM
UGUAUGGACUGAAGGAGCGGGUUGAUAACCUGAGGAUCAUCCAGGUAAAAGGCGAAAGCCACCCAGGUAGGUCGCAGUCCAUACU	199 nM	–	344 nM	433 nM	322 nM
GUGGACAUGAGGAUCACCCAUGUAAGUCGGCGAGGACCGGUACGGCCGCCACUCGUGUUCUGUCUCAGCUCAAACGUAGCCGGAA [theeternabot_sameState_MS2_Trp_A_13]	34.2 nM	–	51.8 nM	39.2 nM	–
CAUAUAUAUAGAAGGAGCGUCGAAAAUGGGUAAACAUGAGGAUCACCCAUGUAAAGGGAACGACAGGUAGGUCGCUAUAUAUAUG [AstromonsSSArgB#3]	99.1 nM	161 nM	187 nM	208 nM	175 nM
GGAUAGGACACGGCCGCCACUAGCUAGGAUACUAGCAACAUUUCCUCAUAUGAGGAUCACCCAUAUAGGACCGGGUGUCCUAUCG	215 nM	376 nM	389 nM	471 nM	1140 nM
AUAAAUAAUAAAUAAGAUAAAAUGGGUGAACGAGGACCGGUACGGCCGCCACUCGGACAUGAGGAUCACCCAUGUCCAUGUGAAA [#22 Exclusion Tryptophan A]	14 nM	–	19.8 nM	20.2 nM	–
ACUGCUUUAGCGGCCGCCACUACAUGGACACUUACACUUUCUUGUUACAUGAGGAUCACCCAUGUUAGGACCGGGCUUGUACGGA [theeternabot_exclusion_MS2_Trp_B_31]	30.5 nM	–	82.6 nM	68.4 nM	–
UCCUCAUGGCAUGAUACCAGACCUAACAUGAGGAUCACCCAUGUAUCAGGCAAUUGUUACGUCCCUUGGCAGCAUGUAUGCCGAC [Theo B SS t4]	33.6 nM	–	91.1 nM	–	60.8 nM
UUACAUGAGGAUCACCCAUGUCAUACAGAAGGAGCGUCACAUAAGACAGGUAGGUCGCUGUUAUUUAAUACUAUUAUAUCCUCUA [JR_Nu_ExcArginiA_Sub027]	26.9 nM	33.7 nM	44.9 nM	35.2 nM	32.8 nM
ACAUGAGGAUCACCCAUGUGCAGAACGGAUACCAGCGUCCUGGUACGCCCUUGGCAGCCGGACAUGAGGAUCACCCAUGUGUGGA [Exclusion Theophylline A GF29]	56 nM	–	161 nM	–	105 nM
AAUAGCAUGAGGAUCACCCAUGUAAAAGAUACCAGAGUGAUGAUCCUCCCUUGGCAGCUUAACGCUGAUUGAUUACAAUCAGCGA	37 nM	44.9 nM	97.8 nM	229 nM	34.4 nM
CUGACGGACUCGGCCGCCACUGAUAGUAGGACAUGAGGAUCACCCAUGUAAACGAACCUCAUAGCCAGGACCGGGAGUCACGAAG [Same State Tryptophan B GF 22]	56.4 nM	204 nM	189 nM	410 nM	49.5 nM
AGACAUGAGGAUCACCCAUGUAGUAUGGAUACCAGAUCCAGAUUUAUCCCUUGGCAGCUGUGGUACAGCGUUGCAUCGCUCCUAG [Exclusion - Theophylline A (Freestyle 13)]	28.9 nM	–	44.5 nM	–	31.7 nM
AAAUAAAUACAUGAGGAUCACCCAUGUGAAGGAGCGCCCGUUAGGGCAGGUAGGUCGCACAUGAACUCCAAAGUGCAAAAGCACA [ArgEX 17 #OpenEnded]	35.7 nM	21.5 nM	29.7 nM	27.4 nM	25.4 nM
GGACUAACCAGAAGGAGCGGCGCGCAGAAACUGCUAAUUCCUCCGCACGAGGAUCACCCGUGUCAGGUAGGUCGCUGGUUAGUCG [ArgBX 28]	10.3 nM	–	12.4 nM	13.4 nM	11 nM
GAUGAUAUUGCAGAUACCAGACACAUGAGGAUCACCCAUGUCGUUGGGUAGCUGGGUCGUGUCCCUUGGCAGCUGCGAUAUCAUC [#05 Exclusion-TheophyllineB]	19.8 nM	–	48.2 nM	–	24.5 nM
